The values below come from article PMC8894450, “Structural basis of leukotriene B4 receptor 1 activation” (Nature Communications, 2022).

The test concerns the target T1, human dominant-negative Gαi1 (S47N, G203A, A326S and E245A) (human, UniProt P63096 1-354, S47N | G203A | A326S | E245A).
T1 construct: The alpha-helical domain had no clear density in the map; also called Gα subunit; Gαi subunit; source: Sf9 cells co-infected with baculoviruses encoding each component; co-purified with the BLT1/Gi complex
The test is described as follows: cryo-EM structure; single-particle cryo-EM of the LTB4-bound BLT1/Gi complex (with scFv16, NanoBiT tether); components co-expressed in Sf9, complex purified on amylose, TEV cut, gel filtration in 25 mM Hepes pH 7.5, 150 mM NaCl, LMNG/GDN/CHS; LTB4 300 nM throughout. The note with it: both partners purified.

T1 sequence (P63096 whole entry S47N/G203A/E245A/A326S, the tested form may be a part): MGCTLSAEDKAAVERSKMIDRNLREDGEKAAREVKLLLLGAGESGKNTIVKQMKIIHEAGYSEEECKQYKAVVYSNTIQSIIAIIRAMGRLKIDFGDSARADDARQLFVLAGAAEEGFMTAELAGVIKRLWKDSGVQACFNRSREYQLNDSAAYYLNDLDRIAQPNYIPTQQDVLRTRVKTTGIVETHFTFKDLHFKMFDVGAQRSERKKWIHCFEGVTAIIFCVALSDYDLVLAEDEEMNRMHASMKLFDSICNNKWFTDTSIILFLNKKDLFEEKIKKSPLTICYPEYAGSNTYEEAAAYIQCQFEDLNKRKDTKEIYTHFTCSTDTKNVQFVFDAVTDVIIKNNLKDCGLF

B1: engineered human leukotriene B4 receptor 1 (BLT1) with 4 thermostabilizing mutations and a C-terminal LgBiT fusion (receptor)
chain: MNTTSSAAPPSLGVEFISLLAIILLSVALAVGLPGNSFVVWSILKRMQKRSVTALMVLNLALADLAVLLTAPFFLHFLAQGTWSFGLAGCRLCHYVCGVSMYASVWLITAMSLDRSLAVARPFVSQKLRTKAMARRVLAGIWVLSFLLATPVLAYRTVVPWKTNMSLCFPRYPSEGHRAFHLIFEAVTGFLLPFLIVVASYSDIGRRLQARRFRRSRRTGRLVVLIILTFAAFWLPYHVVNLAEAGRALAGQAAGLGLVGKRLSLARNVLIALAFLSSSVNPVLYAFAGGGLLRSAGVGFVAKLLEGTGAEASSTRRGGSLGQTARSGPAALEPGPSESLTASSPLKLNELN
notes: human leukotriene B4 receptor 1 (BLT1), codon-optimized gene; model lacks the first 14 residues and the C-tail after residue 301; A TEV site stands between LgBiT and 2x MBP; LgBiT on the receptor pairs with HiBiT on Gbeta1 (NanoBiT tethering strategy); also called BLT1R; the receptor; source: Sf9 cells co-infected with baculoviruses encoding each component; complex purified (amylose column, TEV …)
For B1, the binding result was “binds”.
